Assay results reported in the supplement of paper PMC12783771.
± gives the standard deviation of the averaged measurements.

B1: library; numbered along this chain (parent)
chain: MNIQIGELAKRTACPVVTIRFYEQEGLLPPPGRSRGNFRLYGEEHVERLQFIRHCRSLDMPLSDVRTLLSYRKRPDQDCGEVNMLLDEHIRQVESRIGALLELKHHLVELREACSGARPAQSCGILQGLSDCVCDTRGTTAHPSD

Experiments:
[1] = variants of: B1; assay: sfGFP reporter fluorescence (15 h) (µM FITC); higher = higher leak; details: library round: Round 0; ligand: none
In short: (§1)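 PCR-made linear PbrR templates (Echo-normalized to 5 nM) were expressed in BL21 Star (DE3) extract (PANOx-SP) with pPbrR-sfGFP reporter plasmid and 30 μg/mL GamS. Reactions were 1 μL, Echo-assembled, with 1 µM lead chloride, 30 µM zinc acetate or no metal, incubated 15 hr at 30 °C. Endpoint sfGFP fluorescence (485/528 nm, Synergy Neo2) was converted to µM FITC via standard curves in 50 mM sodium borate pH 8.5. Up to three biological replicates.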

[2] = variants of: B1; assay: sfGFP reporter fluorescence (15 h) (µM FITC); higher = stronger transcriptional activation; details: library round: Round 0
In short: as §1

Row | Variant | sfGFP reporter fluorescence [1] | sfGFP reporter fluorescence ([2]; ligand: 1 µM Pb) | sfGFP reporter fluorescence ([2]; ligand: 30 µM Zn)
1 | MNIQIGELAKRTACPVVTIRFYEQEGLLPPPGRSRGNFRLYGEEHVERLQAIRHCRSLDMPLSDVRTLLSYRKRPDQDCGEVNMLLDEHIRQVESRIGALLELKHHLVELREACSGARPAQSCGILQGLSDCVCDTRGTTAHPSD [F51A] | 0.06597 ± 0.00052 | 0.0621 ± 0.0023 | 0.16 ± 0.0083
2 | MNIQIGELAKRTACPVVTIRFYEQEGLLPPPGRSRGNFRLYGEEHVARLQFIRHCRSLDMPLSDVRTLLSYRKRPDQDCGEVNMLLDEHIRQVESRIGALLELKHHLVELREACSGARPAQSCGILQGLSDCVCDTRGTTAHPSD [E47A] | 0.0612 | 0.0779 ± 0.0049 | 0.791 ± 0.039
3 | MNIQIGELAKRTACPVVTIRFYEQEGLLPPPGRSRGNFRLYGEEHVERLAFIRHCRSLDMPLSDVRTLLSYRKRPDQDCGEVNMLLDEHIRQVESRIGALLELKHHLVELREACSGARPAQSCGILQGLSDCVCDTRGTTAHPSD [Q50A] | 0.06615 ± 0.00026 | 0.0891 | 0.743 ± 0.019
4 | MNIQIGELAKRTACPVVTIRFYEQEGLLPPPGRSRGNFRLYGEEHVEALQFIRHCRSLDMPLSDVRTLLSYRKRPDQDCGEVNMLLDEHIRQVESRIGALLELKHHLVELREACSGARPAQSCGILQGLSDCVCDTRGTTAHPSD [R48A] | 0.0546 ± 0.0015 | 0.0541 ± 0.0023 | 0.3984 ± 0.0031
5 | MNIQIGELAKRTACPVVTIRFYEQEGLLPPPGRSRGNFRLYGEEHVERAQFIRHCRSLDMPLSDVRTLLSYRKRPDQDCGEVNMLLDEHIRQVESRIGALLELKHHLVELREACSGARPAQSCGILQGLSDCVCDTRGTTAHPSD [L49A] | 0.0619 ± 0.001 | 0.0614 ± 0.0013 | 0.0969 ± 0.011
6 | MNIQIGELAKRTACPVVTIRFYEQEGLLPPPGRSRGNFRLYGEEHMERLQFIRHCRSLDMPLSDVRTLLSYRKRPDQDCGEVNMLLDEHIRQVESRIGALLELKHHLVELREACSGARPAQSCGILQGLSDCVCDTRGTTAHPSD [V46M] | 0.0563 ± 0.0018 | 0.09 ± 0.0075 | 1 ± 0.1
7 | MNIQIGELAKRTACPVVTIRFYEQEGLLPPPGRSRGNFRLYGEEHQERLQFIRHCRSLDMPLSDVRTLLSYRKRPDQDCGEVNMLLDEHIRQVESRIGALLELKHHLVELREACSGARPAQSCGILQGLSDCVCDTRGTTAHPSD [V46Q] | 0.0544 ± 0.0039 | 0.0858 ± 0.001 | 0.755 ± 0.052
8 | MNIQIGELAKRTACPVVTIRFYEQEGLLPPPGRSRGNFRLYGEEHSERLQFIRHCRSLDMPLSDVRTLLSYRKRPDQDCGEVNMLLDEHIRQVESRIGALLELKHHLVELREACSGARPAQSCGILQGLSDCVCDTRGTTAHPSD [V46S] | 0.055 ± 0.0021 | 0.0687 ± 0.00078 | 0.306 ± 0.059
9 | MNIQIGELAKRTACPVVTIRFYEQEGLLPPPGRSRGNFRLYGEEHPERLQFIRHCRSLDMPLSDVRTLLSYRKRPDQDCGEVNMLLDEHIRQVESRIGALLELKHHLVELREACSGARPAQSCGILQGLSDCVCDTRGTTAHPSD [V46P] | 0.0537 ± 0.0023 | 0.0592 ± 0.0039 | 0.0641 ± 0.0042
10 | MNIQIGELAKRTACPVVTIRFYEQEGLLPPPGRSRGNFRLYGEEHYERLQFIRHCRSLDMPLSDVRTLLSYRKRPDQDCGEVNMLLDEHIRQVESRIGALLELKHHLVELREACSGARPAQSCGILQGLSDCVCDTRGTTAHPSD [V46Y] | 0.0588 ± 0.00078 | 0.0861 ± 0.0067 | 0.6826 ± 0.0049
11 | MNIQIGELAKRTACPVVTIRFYEQEGLLPPPGRSRGNFRLYGEEHNERLQFIRHCRSLDMPLSDVRTLLSYRKRPDQDCGEVNMLLDEHIRQVESRIGALLELKHHLVELREACSGARPAQSCGILQGLSDCVCDTRGTTAHPSD [V46N] | 0.0535 ± 0.0021 | 0.0665 ± 0.0096 | 0.108 ± 0.0023
12 | MNIQIGELAKRTACPVVTIRFYEQEGLLPPPGRSRGNFRLYGEEHTERLQFIRHCRSLDMPLSDVRTLLSYRKRPDQDCGEVNMLLDEHIRQVESRIGALLELKHHLVELREACSGARPAQSCGILQGLSDCVCDTRGTTAHPSD [V46T] | 0.057 ± 0.0013 | 0.07733 ± 0.00052 | 0.419 ± 0.0078
13 | MNIQIGELAKRTACPVVTIRFYEQEGLLPPPGRSRGNFRLYGEEHRERLQFIRHCRSLDMPLSDVRTLLSYRKRPDQDCGEVNMLLDEHIRQVESRIGALLELKHHLVELREACSGARPAQSCGILQGLSDCVCDTRGTTAHPSD [V46R] | 0.0594 ± 0.001 | 0.08704 ± 0.00026 | 0.75 ± 0.054
14 | MNIQIGELAKRTACPVVTIRFYEQEGLLPPPGRSRGNFRLYGEEHWERLQFIRHCRSLDMPLSDVRTLLSYRKRPDQDCGEVNMLLDEHIRQVESRIGALLELKHHLVELREACSGARPAQSCGILQGLSDCVCDTRGTTAHPSD [V46W] | 0.0583 ± 0.0021 | 0.0757 ± 0.0034 | 0.429 ± 0.0044
